Test results published in patent US12221463B2, “Method of promoting wound healing by inhibiting CCR3” (The Board of Regents of the University of Oklahoma, priority 2020, dated 2025).

What was measured:
CCR3 = molecular target: T1, CCR3 (Homo sapiens, UniProt P51677); conditions: CCR3 agonism; Buskermolen et al. 2017; cited from earlier work
T1 sequence (P51677 1-355): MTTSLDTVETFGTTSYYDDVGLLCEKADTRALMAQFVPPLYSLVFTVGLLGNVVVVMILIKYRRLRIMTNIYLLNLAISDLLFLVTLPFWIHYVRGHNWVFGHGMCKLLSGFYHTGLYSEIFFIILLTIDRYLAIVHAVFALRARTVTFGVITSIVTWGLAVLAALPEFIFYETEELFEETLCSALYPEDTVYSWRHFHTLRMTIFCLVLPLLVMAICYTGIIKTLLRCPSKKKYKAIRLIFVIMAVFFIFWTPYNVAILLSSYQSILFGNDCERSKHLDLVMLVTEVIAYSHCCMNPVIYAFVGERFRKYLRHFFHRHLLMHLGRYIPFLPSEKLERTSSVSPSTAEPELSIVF

HEKn [1] = test: Proliferation assay (PrestoBlue); type: cell-based, human; conditions: 16 hours
Method: Cells were plated on a collagen I coated 96-well plate (Corning, New York, NY) at a density of 4×10^3 cells per well, and then allowed to attach overnight. The next day, cells were treated with CCL24 (Biolegend, San Diego, CA), CCL26 (Biolegend, San Diego, CA), or IGF (ThermoFisher, Waltham, MA) for 16 hours. To assess viability, PrestoBlue (Life Technologies, Carlsbad, CA) was added according to manufacturer's protocol, and results were obtained on a microplate reader (BioTek, Winooski, VT).

HEKn [2] = test: Cell exclusion zone assay (in vitro wound closure / migration); type: cell-based, human; conditions: 16 hours
Method: HEKn were seeded (2.0×10^4 per well) around the barrier of a collagen I coated Oris Cell Migration Assay 96-well plate (Platypus, West Lebanon, NH). Cells were incubated overnight to allow for cell attachment. After incubation, the circular barriers were removed (except for reference wells), and the cells were treated with either anti-CCR3 (R&D Systems, Minneapolis, MN) (2 ug/mL), IgG control (R&D Systems, Minneapolis, MN; 2 μg/mL), CCL24 (Biolegend, […], CA), CCL26 (Biolegend, San Jose, CA), or IGF (ThermoFisher, Waltham, MA; 10 ng/mL) for 16 hours. At the end of the experiment, Calcein-AM (Life Technologies, Carlsbad, CA) (2 μM) was added prior to obtaining images with a Nikon TE2000-E inverted epi-fluorescence microscope (2× objective). ImageJ (NIH) was utilized to analyze the images.

keratinocytes = conditions: Kroeze et al. 2012, type IV collagen; cited from earlier work

For “CCL28: chemokine used for CCR3 agonism in cited oral wound healing study”, which oral wound healing (CCR3) is on record?
The oral wound healing was “promote”.

B1: CCL24: CCR3-specific ligand Chemokine (C-C motif) ligand 24 (eotaxin-2), Biolegend (protein)
chain: VVIPSPCCMFFVSKRIPENRVVSYQLSSRSTCLKAGVIFTTKKGQQFCGDPKQEWVQRYMKNLDAKQKKASPRARAVA
For B1, which keratinocyte proliferation (HEKn [1]; 20 ng/mL) is on record?
Its keratinocyte proliferation is “significantly reduced”.

And the keratinocyte proliferation (HEKn [1]; 50 ng/mL)?
Its keratinocyte proliferation is “significantly reduced”.

And the keratinocyte proliferation (HEKn [1]; 100 ng/mL)?
Its keratinocyte proliferation is “significantly reduced”.

What about the keratinocyte migration (HEKn [2]) of the same molecule?
The keratinocyte migration was “did not significantly alter”.

What about the keratinocyte proliferation (keratinocytes) of the same molecule?
The keratinocyte proliferation was “promoted”.

B2: CCL26: CCR3-specific ligand Chemokine (C-C motif) ligand 26 (eotaxin-3), Biolegend (protein)
chain: TRGSDISKTCCFQYSHKPLPWTWVRSYEFTSNSCSQRAVIFTTKRGKKVCTHPRKKWVQKYISLLKTPKQL
For B2, which keratinocyte proliferation (HEKn [1]; 20 ng/mL) is on record?
The keratinocyte proliferation was “significantly reduced”.

What about the keratinocyte proliferation (HEKn [1]; 50 ng/mL) of the same molecule?
The keratinocyte proliferation was “significantly reduced”.

What about the keratinocyte proliferation (HEKn [1]; 100 ng/mL) of the same molecule?
The keratinocyte proliferation was “significantly reduced”.

And the keratinocyte migration (HEKn [2])?
The keratinocyte migration was “did not significantly alter”.
